B2: BRD3^BD2 (second bromodomain of BRD3, residues 306-416) (domain or fragment)
chain: GKLSEHLRYCDSILREMLSKKHAAYAWPFYKPVDAEALELHDYHDIIKHPMDLSTVKRKMDGREYPDAQGFAADVRLMFSNCYKYNPPDHEVVAMARKLQDVFEMRFAKMP

The target in test [1] is T1, BRD2^BD2 (second bromodomain of BRD2, residues 344-455) (UniProt P25440 344-455). The experiment in a line: ITC; ternary, BRD2 BD2 pre-bound to PROTAC SJ46421. (Isothermal titration calorimetry measures the heat released or taken up as one component is titrated into another.)
The target of test [2] is B2. The test can be described thus: ITC; ternary complex with PROTAC SJ46423 (BRD3BD2-SJ46423 in cell).
The target of test [3] is B2. The experiment in a line: ITC; ternary complex with PROTAC SJ46421 (BRD3BD2-SJ46421 in cell).
The target in test [4] is T1, BRD2^BD2 (second bromodomain of BRD2, …). The test can be described thus: ITC; ternary complex with PROTAC SJ46421 (BRD2BD2-SJ46421 in cell).
In test [5] the target is B2. The experiment in a line: ITC; ternary, BRD3 BD2 pre-bound to PROTAC SJ46421.
Test [6] has as its target T2, BRD3^BD2 E344G swap mutant (UniProt Q15059 306-416, E344G). The experiment in a line: ITC; ternary, with SJ46421.
Test [7] has as its target T3, BRD4^BD2 G-to-E swap mutant (G386E) (UniProt O60885 334-460, G-to-E swap mutation (G386)). The experiment in a line: ITC; ternary, with SJ46421.
Test [8] deals with T4, BRD2^BD2 G-to-E swap mutant (G382E) (UniProt P25440 344-455, G-to-E swap mutation (G382)). The test can be described thus: ITC; ternary, with SJ46421.
Test [9] addresses T2, BRD3^BD2 E344G swap mutant. The experiment in a line: ITC; ternary complex with PROTAC SJ46421.
The target in test [10] is T3, BRD4^BD2 G-to-E swap mutant (G386E). The test can be described thus: ITC; ternary complex with PROTAC SJ46421.
For test [11], the target named is T4, BRD2^BD2 G-to-E swap mutant (G382E). The experiment in a line: ITC; ternary complex with PROTAC SJ46421.
Test [12] addresses T5, BRD4^BD2 (second bromodomain of BRD4, residues 334-460) (UniProt O60885 334-460). The test can be described thus: ITC; ternary complex with PROTAC SJ46421 (BRD4BD2-SJ46421 in cell).
In test [13] the target is B2. The test can be described thus: ITC; ternary, BRD3 BD2 pre-bound to SJ46423.
The target of test [14] is T5, BRD4^BD2 (second bromodomain of BRD4, …). The test can be described thus: ITC; ternary, BRD4 BD2 pre-bound to PROTAC SJ46421.
Test [15] has as its target T6, KLHDC2 R56A mutant (UniProt Q9Y2U9 15-361, R56A). The test can be described thus: ITC; ternary, with SJ46421.
Test [16] concerns the target KLHDC2 R112 to alanine mutant (UniProt Q9Y2U9 15-361, R112 to alanine). The experiment in a line: ITC; ternary, with SJ46421.
Test [17] concerns the target KLHDC2 K291 to alanine mutant (UniProt Q9Y2U9 15-361, K291 to alanine). The experiment in a line: ITC; ternary, with SJ46421.
Test [18] addresses KLHDC2 H346/R347 to alanine mutant (UniProt Q9Y2U9 15-361, H346 to alanine | R347 to alanine, H346A and R347A taken as one combined double mutant, because the text lists H346/R347 as one of four patches mutated to alanine; whether they were combined is not printed explicitly). The test can be described thus: ITC; ternary, with SJ46421.
Test [19] addresses T6, KLHDC2 R56A mutant. The experiment in a line: ITC; ternary complex with PROTAC SJ46421.

This is an account of results in PMC11470957 (2024).

The term Kd denotes the constant that tells how readily two partners part at equilibrium.

B1: KLHDC2 substrate binding domain (KLHDC2^SBD, 15-361) (domain or fragment)
chain: GPAFESYESMELACPAERSGHVAVSDGRHMFVWGGYKSNQVRGLYDFYLPREELWIYNMETGRWKKINTEGDVPPSMSGSCAVCVDRVLYLFGGHHSRGNTNKFYMLDSRSTDRVLQWERIDCQGIPPSSKDKLGVWVYKNKLIFFGGYGYLPEDKVLGTFEFDETSFWNSSHPRGWNDHVHILDTETFTWSQPITTGKAPSPRAAHACATVGNRGFVFGGRYRDARMNDLHYLNLDTWEWNELIPQGICPVGRSWHSLTPVSSDHLFLFGGFTTDKQPLSDAWTYCISKNEWIQFNHPYTEKPRLWHTACASDEGEVIVFGGCANNLLVHHRAAHSNEILIFSVQP
Turning to B1, the Kd in test [1] turned out to be 208 nM; in test [2], 251 nM; in test [3], 19 nM; in test [4], 208 nM; in [5], 19 nM; in test [6], 181 nM. The dissociation constant (Kd) in test [7] amounted to 24.5 nM; in [8] it was 95.4 nM; in [9] it was 181 nM; in [10], 24.5 nM; in [11] it was 95.4 nM; in test [12] it was 109 nM. Further, the figures for the Kd in test [13] and in test [14] were 251 nM and 109 nM, respectively.

B2: the Kd was found to be 273 nM in [15]; 39.7 nM in test [16]; 25.6 nM in [17]; 50.9 nM in test [18]; 273 nM in test [19].
